Assay results reported in patent US20050244864A1, “Development and use of fluorescent probes of unbound analytes” (priority 2004, published 2005).

B1: D74F, L72A: acrylodan-labeled rI-FABP mutein D74F, L72A (protein)
chain: AFDGTWKVDRNENYEKFMEKMGINVVKRKLGAHDNLKLTITQEGNKFTVKESSNFRNIDVVFELGVDFAYSAAFGTELTGTWTMEGNKLVGKFKRVDNGKELIAVREISGNELIQTYTYEGVEAKRIFKKE
B2: L78F, L72A: acrylodan-labeled rI-FABP mutein L78F, L72A (protein)
chain: AFDGTWKVDRNENYEKFMEKMGINVVKRKLGAHDNLKLTITQEGNKFTVKESSNFRNIDVVFELGVDFAYSAADGTEFTGTWTMEGNKLVGKFKRVDNGKELIAVREISGNELIQTYTYEGVEAKRIFKKE
B3: W82F, L72A: acrylodan-labeled rI-FABP mutein W82F, L72A (protein)
chain: AFDGTWKVDRNENYEKFMEKMGINVVKRKLGAHDNLKLTITQEGNKFTVKESSNFRNIDVVFELGVDFAYSAADGTELTGTFTMEGNKLVGKFKRVDNGKELIAVREISGNELIQTYTYEGVEAKRIFKKE
B4: R106W, L72A: acrylodan-labeled rI-FABP mutein R106W, L72A (protein)
chain: AFDGTWKVDRNENYEKFMEKMGINVVKRKLGAHDNLKLTITQEGNKFTVKESSNFRNIDVVFELGVDFAYSAADGTELTGTWTMEGNKLVGKFKRVDNGKELIAVWEISGNELIQTYTYEGVEAKRIFKKE
B5: Y117A, L72A: acrylodan-labeled rI-FABP mutein Y117A, L72A (protein)
chain: AFDGTWKVDRNENYEKFMEKMGINVVKRKLGAHDNLKLTITQEGNKFTVKESSNFRNIDVVFELGVDFAYSAADGTELTGTWTMEGNKLVGKFKRVDNGKELIAVREISGNELIQTATYEGVEAKRIFKKE
B6: Y117S, L72A: acrylodan-labeled rI-FABP mutein Y117S, L72A (protein)
chain: AFDGTWKVDRNENYEKFMEKMGINVVKRKLGAHDNLKLTITQEGNKFTVKESSNFRNIDVVFELGVDFAYSAADGTELTGTWTMEGNKLVGKFKRVDNGKELIAVREISGNELIQTSTYEGVEAKRIFKKE
B7: L72A: acrylodan-labeled rI-FABP clone with L72A (the template mutein) (protein, listed as Rattus norvegicus)
chain: AFDGTWKVDRNENYEKFMEKMGINVVKRKLGAHDNLKLTITQEGNKFTVKESSNFRNIDVVFELGVDFAYSAADGTELTGTWTMEGNKLVGKFKRVDNGKELIAVREISGNELIQTYTYEGVEAKRIFKKDRGHHHHHH
modifications: acrylodan label; MUTAGEN (72)...(72) rat intestinal fatty acid binding protein with alanine substitution for leucine at position 72
B8: L72G: acrylodan-labeled rI-FABP mutein L72G (protein)
chain: AFDGTWKVDRNENYEKFMEKMGINVVKRKLGAHDNLKLTITQEGNKFTVKESSNFRNIDVVFELGVDFAYSGADGTELTGTWTMEGNKLVGKFKRVDNGKELIAVREISGNELIQTYTYEGVEAKRIFKKE
B9: L72M: acrylodan-labeled rI-FABP mutein L72M (protein)
chain: AFDGTWKVDRNENYEKFMEKMGINVVKRKLGAHDNLKLTITQEGNKFTVKESSNFRNIDVVFELGVDFAYSMADGTELTGTWTMEGNKLVGKFKRVDNGKELIAVREISGNELIQTYTYEGVEAKRIFKKE
B10: A73F, L72A: acrylodan-labeled rI-FABP mutein A73F, L72A (protein)
chain: AFDGTWKVDRNENYEKFMEKMGINVVKRKLGAHDNLKLTITQEGNKFTVKESSNFRNIDVVFELGVDFAYSAFDGTELTGTWTMEGNKLVGKFKRVDNGKELIAVREISGNELIQTYTYEGVEAKRIFKKE
B11: A73I, L72A: acrylodan-labeled rI-FABP mutein A73I, L72A (protein)
chain: AFDGTWKVDRNENYEKFMEKMGINVVKRKLGAHDNLKLTITQEGNKFTVKESSNFRNIDVVFELGVDFAYSAIDGTELTGTWTMEGNKLVGKFKRVDNGKELIAVREISGNELIQTYTYEGVEAKRIFKKE
B12: L1P12 F12: acrylodan-labeled rI-FABP mutein: Y14 L, L38 wt, L72 G, Y117 V (protein, UniProt P02693 2-132, looked up, variant Y14L L72G Y117V)
Fatty acid-binding protein, …: AFDGTWKVDRNENLEKFMEKMGINVVKRKLGAHDNLKLTITQEGNKFTVKESSNFRNIDVVFELGVDFAYSGADGTELTGTWTMEGNKLVGKFKRVDNGKELIAVREISGNELIQTVTYEGVEAKRIFKKE
modifications: acrylodan label
notes: acrylodan-labeled rI-FABP mutein: Y14 L, L38 wt, L72 G, Y117 V
B13: L1P2 F7: acrylodan-labeled rI-FABP mutein: Y14 I, L38 wt, L72 G, Y117 V (protein, UniProt P02693 2-132, looked up, variant Y14I L72G Y117V)
Fatty acid-binding protein, …: AFDGTWKVDRNENIEKFMEKMGINVVKRKLGAHDNLKLTITQEGNKFTVKESSNFRNIDVVFELGVDFAYSGADGTELTGTWTMEGNKLVGKFKRVDNGKELIAVREISGNELIQTVTYEGVEAKRIFKKE
modifications: acrylodan label
notes: acrylodan-labeled rI-FABP mutein: Y14 I, L38 wt, L72 G, Y117 V

How the values were obtained:
Assay type in all cases: binding
[1] = Probe fluorescence ratio response to arachidonate:BSA complex, relative to ADIFAB2 (ΔR/ΔRAD2); conditions: fluorescence response (R-Ro) relative to ADIFAB2; arachidonate
Protocol: (§1) The intensity ratio (“R” value) for a given probe is determined. The ratio is calculated using the following formula: R=Fλ1/Fλ2 wherein, Fλ1, is the measured fluorescence intensities (intensity of sample with probe present minus intensity of sample without probe present) at wavelength 1 and Fλ2 is the measured fluorescence intensities (intensity of sample with probe present minus intensity of sample without probe present) at wavelength 2. Then, for a given probe, ΔR, the difference in R value between the measurement in the presence of the analyte and in the absence of the analyte, is calculated as follows: ΔR=R+analyte−R0 The ΔR value for a given probe is then compared to a reference probe, for example, ADIFAB or ADIFAB2, by ΔR/ΔRreference. This value is an indication of how dissimilar the new probe (derived by mutation of the template) is to the reference. By this method, probes with new and useful characteristics may be identified. Measurements of fluorescence intensities are obtained using standard techniques.
(§2) Mutant probes were screened in 96-well plates by fluorescence response to five fatty acids: arachidonate, linolenate, linoleate, oleate, and palmitate. Each fatty acid was prepared as a complex with BSA by slow addition of 50 mM stocks of fatty acid sodium salts at pH 11 to 600 μM BSA in HEPES buffer. During the formation of complexes, 15 μL aliquots were periodically measured with the reference probe, ADIFAB2, to determine the ΔR value upon excitation at 375 nm and fluorescence emission at 550 and 457 nm using a Fluorolog-3 spectrofluorometer (Jobin Yvon) (Richieri et al, Molecular and Cellular Biochemistry (1999), 192:87-94 & Richieri et al, J. Biol. Chem. (1996), 271:31068-31074). Complexes were prepared such that the final ΔR was approximately 0.4 which correspond to [FFAu] ranging from 100 to 1000 nM depending on FFA type. These complexes buffer or clamp the FFAu levels at fixed values and therefore ensure the accurate comparison of different probes with the same FFAu concentrations. In contrast, addition of FFAu alone (i.e. uncomplexed FFA) introduces considerable uncertainty in comparing different probes because the FFAu level will be affected by binding to the dispensing device, the walls of the multi-well plates and to the probe itself. Thus, the terms “buffer” and “clamp” as used in this particular context herein are taken to mean the ability of a carrier macromolecule to complex with an unbound metabolite so that the unbound metabolite is presented accurately for measurement purposes and is prevented from non-specific binding such as binding to laboratory apparatus.
(§3) Plates were prepared and read in two stages. First, complexes and fatty acid free BSA were diluted to 6 μM BSA in HEPES and added to the 96-well plate at 300 μL per well. A MultiProbe II HT (Perkin Elmer) (an automated liquid handling system) was used to facilitate plate preparation for high throughput screening, but any automated or manual pipetting system will suffice. The background fluorescence was then measured at the same wavelengths as used for ADIFAB2 using a Fluorolog-3 spectrofluorometer with an external Micromax 384 fluorescence plate reader (Jobin Yvon). In the second stage, 30 μL aliquots of the mutant probes were added to multiple wells of the plate, one for each fatty acid and one with fatty acid free BSA only, and the fluorescence intensity at each wavelength was again measured on the plate reader. After subtraction of the background fluorescence, the fluorescence ratio of each well was calculated.
(§4) The fluorescence response was quantitatively compared to ADIFAB2 to search for changes in magnitude and fatty acid profile; for example the response to one fatty acid relative to another. For each probe the ratio differences (AR) between wells with each fatty acid compared to a corresponding well with fatty acid free BSA were recorded. […]

[2] = Probe fluorescence ratio response to linolenate:BSA complex, relative to ADIFAB2 (ΔR/ΔRAD2); conditions: fluorescence response (R-Ro) relative to ADIFAB2; linolenate
Protocol: as §1, §2, §3, §4

[3] = Probe fluorescence ratio response to linoleate:BSA complex, relative to ADIFAB2 (ΔR/ΔRAD2); conditions: fluorescence response (R-Ro) relative to ADIFAB2; linoleate
Protocol: as §1, §2, §3, §4

[4] = Probe fluorescence ratio response to oleate:BSA complex, relative to ADIFAB2 (ΔR/ΔRAD2); conditions: fluorescence response (R-Ro) relative to ADIFAB2; oleate
Protocol: as §1, §2, §3, §4

[5] = Probe fluorescence ratio response to palmitate:BSA complex, relative to ADIFAB2 (ΔR/ΔRAD2); conditions: fluorescence response (R-Ro) relative to ADIFAB2; palmitate
Protocol: as §1, §2, §3, §4

Molecule | ΔR/ΔRAD2 AA [1] | ΔR/ΔRAD2 LNA [2] | ΔR/ΔRAD2 LA [3] | ΔR/ΔRAD2 OA [4] | ΔR/ΔRAD2 PA [5]
B1 | 0.44 | 1.04 | 0.67 | 0.51 | 0.93
B2 | 2.04 | 2.05 | 2 | 1.83 | 0.91
B3 | 0.68 | 0.76 | 1.08 | 0.78 | 0.41
B4 | 1.11 | 1.03 | 1.04 | 0.99 | 0.41
B5 | 1.27 | 0.62 | 1.01 | 0.93 | 0.32
B6 | 1.35 | 1.07 | 1.42 | 1.19 | 0.55
B7 | 1.12 | 1.16 | 1.14 | 1.15 | 1.02
B8 | 0.62 | 0.48 | 0.48 | 0.52 | 0.26
B9 | 1.31 | 1.35 | 1.46 | 1.49 | 1.32
B10 | 1.21 | 1.86 | 1.23 | 0.73 | 1.13
B11 | 0.38 | 0.03 | −0.04 | −0.04 | −0.04
B12 | 0.9 | 0.5 | 0.5 | 0.3 | 0.1
B13 | 0.9 | 0.5 | 0.6 | 0.3 | 0.1
